Laboratory results reported in US20140087995A1 (published 2014).
Numbered stars: 1 amine (or outer) side, 2 acyl side, 3 side chain; on linkers, the order of the positions; unused ones are H or OH. Bridge positions count the residues as written; N and C are the ends. Side chains are listed from the residue outwards. Ends that are not written are not given here. * marks the point of attachment. C20 diacid = O=C(O)CCCCCCCCCCCCCCCCCCC(=O)*; γGlu = O=C(O)[C@H](CCC(=O)[*:2])N[*:1]; AEEA = NCCOCCOCC(=O)O

T1: human calcitonin receptor (human, UniProt P30988 25-474)
T1 construct: whole, on cells; Assayed as cell membranes of BHK tk'ts 13 cells stably transfected with the human calcitonin receptor (Assay VII); also called hCTR; hCT
T1 sequence (looked up): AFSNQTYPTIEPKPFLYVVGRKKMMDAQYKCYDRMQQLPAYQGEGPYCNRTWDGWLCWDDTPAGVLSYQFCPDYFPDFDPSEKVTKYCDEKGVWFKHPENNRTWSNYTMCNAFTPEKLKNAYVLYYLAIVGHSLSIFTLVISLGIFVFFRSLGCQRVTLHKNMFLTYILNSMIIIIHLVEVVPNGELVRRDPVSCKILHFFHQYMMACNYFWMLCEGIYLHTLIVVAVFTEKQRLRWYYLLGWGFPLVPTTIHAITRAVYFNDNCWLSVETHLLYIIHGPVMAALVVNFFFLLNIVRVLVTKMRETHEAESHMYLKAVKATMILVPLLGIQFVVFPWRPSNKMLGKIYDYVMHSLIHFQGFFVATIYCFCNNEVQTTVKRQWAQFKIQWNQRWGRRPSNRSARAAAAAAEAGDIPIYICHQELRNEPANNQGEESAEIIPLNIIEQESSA

B1: N^ε1-[2-[2-[2-[[2-[2-[2-[[(4S)-4-carboxy-4-(19-carboxynonadecanoylamino)butanoyl]amino]ethoxy]ethoxy]acetyl]amino]ethoxy]ethoxy]acetyl]-[Arg17,Pro21,Pro27,His34 … (peptide)
peptide: K([AEEA-AEEA-γGlu-C20 diacid])CNTATCATQRLANFLRHSSPNFGAIPSSTNVGHNTY-NH2
modifications: disulfide 2-7; N-terminus assumed
SMILES: CC[C@H](C)[C@H](NC(=O)[C@H](C)NC(=O)CNC(=O)[C@H](Cc1ccccc1)NC(=O)[C@H](CC(N)=O)NC(=O)[C@@H]1CCCN1C(=O)[C@H](CO)NC(=O)[C@H](CO)NC(=O)[C@H](Cc1c[nH]cn1)NC(=O)[C@H](CCCNC(=N)N)NC(=O)[C@H](CC(C)C)NC(=O)[C@H](Cc1ccccc1)NC(=O)[C@H](CC(N)=O)NC(=O)[C@H](C)NC(=O)[C@H](CC(C)C)NC(=O)[C@H](CCCNC(=N)N)NC(=O)[C@H](CCC(N)=O)NC(=O)[C@@H](NC(=O)[C@H](C)NC(=O)[C@@H]1CSSC[C@H](NC(=O)[C@@H](N)CCCCNC(=O)COCCOCCNC(=O)COCCOCCNC(=O)CC[C@H](NC(=O)CCCCCCCCCCCCCCCCCCC(=O)O)C(=O)O)C(=O)N[C@@H](CC(N)=O)C(=O)N[C@@H]([C@@H](C)O)C(=O)N[C@@H](C)C(=O)N[C@@H]([C@@H](C)O)C(=O)N1)[C@@H](C)O)C(=O)N1CCC[C@H]1C(=O)N[C@@H](CO)C(=O)N[C@@H](CO)C(=O)N[C@H](C(=O)N[C@@H](CC(N)=O)C(=O)N[C@H](C(=O)NCC(=O)N[C@@H](Cc1c[nH]cn1)C(=O)N[C@@H](CC(N)=O)C(=O)N[C@H](C(=O)N[C@@H](Cc1ccc(O)cc1)C(N)=O)[C@@H](C)O)C(C)C)[C@@H](C)O
notes: also called compound 97
B2: N^ε1-[2-[2-[2-[[2-[2-[2-[[(4S)-4-carboxy-4-(19-carboxynonadecanoylamino)butanoyl]amino]ethoxy]ethoxy]acetyl]amino]ethoxy]ethoxy]acetyl]-[Arg17,Pro21,Pro27,Pro31 … (peptide)
peptide: K([AEEA-AEEA-γGlu-C20 diacid])CNTATCATQRLANFLRHSSPNFGAIPSSTPVGSNTY-NH2
modifications: disulfide 2-7; N-terminus assumed
SMILES: CC[C@H](C)[C@H](NC(=O)[C@H](C)NC(=O)CNC(=O)[C@H](Cc1ccccc1)NC(=O)[C@H](CC(N)=O)NC(=O)[C@@H]1CCCN1C(=O)[C@H](CO)NC(=O)[C@H](CO)NC(=O)[C@H](Cc1c[nH]cn1)NC(=O)[C@H](CCCNC(=N)N)NC(=O)[C@H](CC(C)C)NC(=O)[C@H](Cc1ccccc1)NC(=O)[C@H](CC(N)=O)NC(=O)[C@H](C)NC(=O)[C@H](CC(C)C)NC(=O)[C@H](CCCNC(=N)N)NC(=O)[C@H](CCC(N)=O)NC(=O)[C@@H](NC(=O)[C@H](C)NC(=O)[C@@H]1CSSC[C@H](NC(=O)[C@@H](N)CCCCNC(=O)COCCOCCNC(=O)COCCOCCNC(=O)CC[C@H](NC(=O)CCCCCCCCCCCCCCCCCCC(=O)O)C(=O)O)C(=O)N[C@@H](CC(N)=O)C(=O)N[C@@H]([C@@H](C)O)C(=O)N[C@@H](C)C(=O)N[C@@H]([C@@H](C)O)C(=O)N1)[C@@H](C)O)C(=O)N1CCC[C@H]1C(=O)N[C@@H](CO)C(=O)N[C@@H](CO)C(=O)N[C@H](C(=O)N1CCC[C@H]1C(=O)N[C@H](C(=O)NCC(=O)N[C@@H](CO)C(=O)N[C@@H](CC(N)=O)C(=O)N[C@H](C(=O)N[C@@H](Cc1ccc(O)cc1)C(N)=O)[C@@H](C)O)C(C)C)[C@@H](C)O
notes: also called compound 96
B3: N^ε1-[2-[2-[2-[[(4S)-4-carboxy-4-(19-carboxynonadecanoylamino)butanoyl]amino]ethoxy]ethoxy]acetyl]-[Ala14,Arg17,Pro21,Pro27,Pro31]-h-amylin (peptide)
peptide: K([AEEA-γGlu-C20 diacid])CNTATCATQRLAAFLRHSSPNFGAIPSSTPVGSNTY-NH2
modifications: disulfide 2-7; N-terminus assumed
SMILES: CC[C@H](C)[C@H](NC(=O)[C@H](C)NC(=O)CNC(=O)[C@H](Cc1ccccc1)NC(=O)[C@H](CC(N)=O)NC(=O)[C@@H]1CCCN1C(=O)[C@H](CO)NC(=O)[C@H](CO)NC(=O)[C@H](Cc1c[nH]cn1)NC(=O)[C@H](CCCNC(=N)N)NC(=O)[C@H](CC(C)C)NC(=O)[C@H](Cc1ccccc1)NC(=O)[C@H](C)NC(=O)[C@H](C)NC(=O)[C@H](CC(C)C)NC(=O)[C@H](CCCNC(=N)N)NC(=O)[C@H](CCC(N)=O)NC(=O)[C@@H](NC(=O)[C@H](C)NC(=O)[C@@H]1CSSC[C@H](NC(=O)[C@@H](N)CCCCNC(=O)COCCOCCNC(=O)CC[C@H](NC(=O)CCCCCCCCCCCCCCCCCCC(=O)O)C(=O)O)C(=O)N[C@@H](CC(N)=O)C(=O)N[C@@H]([C@@H](C)O)C(=O)N[C@@H](C)C(=O)N[C@@H]([C@@H](C)O)C(=O)N1)[C@@H](C)O)C(=O)N1CCC[C@H]1C(=O)N[C@@H](CO)C(=O)N[C@@H](CO)C(=O)N[C@H](C(=O)N1CCC[C@H]1C(=O)N[C@H](C(=O)NCC(=O)N[C@@H](CO)C(=O)N[C@@H](CC(N)=O)C(=O)N[C@H](C(=O)N[C@@H](Cc1ccc(O)cc1)C(N)=O)[C@@H](C)O)C(C)C)[C@@H](C)O
notes: also called compound 72
B4: N^ε1-[2-[2-[2-[[2-[2-[2-[[(4S)-4-carboxy-4-(19-carboxynonadecanoylamino)butanoyl]amino]ethoxy]ethoxy]acetyl]amino]ethoxy]ethoxy]acetyl]-[Arg17,Pro21,Pro27,Pro34 … (peptide)
peptide: K([AEEA-AEEA-γGlu-C20 diacid])CNTATCATQRLANFLRHSSPNFGAIPSSTNVGPNTY-NH2
modifications: disulfide 2-7; N-terminus assumed
SMILES: CC[C@H](C)[C@H](NC(=O)[C@H](C)NC(=O)CNC(=O)[C@H](Cc1ccccc1)NC(=O)[C@H](CC(N)=O)NC(=O)[C@@H]1CCCN1C(=O)[C@H](CO)NC(=O)[C@H](CO)NC(=O)[C@H](Cc1c[nH]cn1)NC(=O)[C@H](CCCNC(=N)N)NC(=O)[C@H](CC(C)C)NC(=O)[C@H](Cc1ccccc1)NC(=O)[C@H](CC(N)=O)NC(=O)[C@H](C)NC(=O)[C@H](CC(C)C)NC(=O)[C@H](CCCNC(=N)N)NC(=O)[C@H](CCC(N)=O)NC(=O)[C@@H](NC(=O)[C@H](C)NC(=O)[C@@H]1CSSC[C@H](NC(=O)[C@@H](N)CCCCNC(=O)COCCOCCNC(=O)COCCOCCNC(=O)CC[C@H](NC(=O)CCCCCCCCCCCCCCCCCCC(=O)O)C(=O)O)C(=O)N[C@@H](CC(N)=O)C(=O)N[C@@H]([C@@H](C)O)C(=O)N[C@@H](C)C(=O)N[C@@H]([C@@H](C)O)C(=O)N1)[C@@H](C)O)C(=O)N1CCC[C@H]1C(=O)N[C@@H](CO)C(=O)N[C@@H](CO)C(=O)N[C@H](C(=O)N[C@@H](CC(N)=O)C(=O)N[C@H](C(=O)NCC(=O)N1CCC[C@H]1C(=O)N[C@@H](CC(N)=O)C(=O)N[C@H](C(=O)N[C@@H](Cc1ccc(O)cc1)C(N)=O)[C@@H](C)O)C(C)C)[C@@H](C)O
notes: also called compound 98

The binders below were run against T1, human calcitonin receptor (assay: SPA competition vs 125I-calcitonin, membranes of BHK cells with human calcitonin receptor (Assay VII)).
Description: Membranes were prepared in the following way; the cells were rinsed with PBS and incubated with Versene for approximately 5 min before harvesting. The cells were flushed with PBS and the cell-suspension was centrifuged for 5 min at 1000 rpm. Cells were homogenized (Ultrathurrax) in a buffer containing 20 mM Na-HEPES and 10 mM EDTA (pH 7.4) and centrifuged at 20.000 rpm for 15 min. The resulting pellet was resuspended, homogenized and centrifuged (20.000 rpm, 15 min) in a buffer containing 20 mM Na-HEPES and 0.1 mM EDTA (pH 7.4, buffer 2). The resulting pellet was resuspended in buffer 2 and protein concentration was measured (BCA protein Assay, Pierce). The homogenate was kept cold during the whole procedure. The membranes were kept at −80° C. until use. Assay was performed in a 384 well Optiplate (PerkinElmer) in a total volume of 40 ul. Membranes were mixed with SPA beads. Final concentration of membranes 35 ng/μL final and Final concentration of SPA beads was 0.05 mg/well. Test-compounds were dissolved in DMSO and further diluted in assay buffer (50 mM Hepes, pH 7.4, 1 mM CaCl2, 5 mM MgCl₂, 0.1% OA and 0.02% Tween20). […] The final mixture was incubated for 120 min with shaking at 400 rpm at 25° C. prior to centrifugation (1500 rpm, 10 min). Samples were analyzed on TopCounter™ (Packard). The […] was calculated using (one site binding competition analysis) GraphPad Prism5 as a measure of receptor affinity.

IC50	Binder
58.9 nM	B1
13.2 nM	B2
42.4 nM	B3
6.74 nM	B4

The binders below were run against T1, human calcitonin receptor (assay: IC50 at hCTR divided by IC50 at hAmylin-R (SPA competition assays V and VII)).
Description: The resulting pellet was resuspended, homogenized and centrifuged (20.000 rpm, 15 min) in a buffer containing 20 mM Na-HEPES and 0.1 mM EDTA (pH 7.4, buffer 2). The resulting pellet was resuspended in buffer 2 and protein concentration was measured (BCA protein Assay, Pierce). The homogenate was kept cold during the whole procedure. The membranes were kept at −80° C. until use. The assay was performed in a 384 well Optiplate (PerkinElmer) in a total volume of 40 ul. Membranes were mixed with SPA beads. Final concentration of membranes 35 ng/μL final and SPA beads was 0.05 mg/well. Test-compounds were dissolved in DMSO and further diluted in assay buffer (50 mM Hepes, pH 7.4, 1 mM CaCl2, 5 mM MgCl₂, 0.1% OA and 0.02% Tween20). […] The final mixture was incubated with shaking at 400 rpm for 120 min at 25° C. prior to centrifugation (1500 rpm, 10 min). Samples were analyzed on TopCounter™ (Packard). The IC₅₀ was calculated using (one site binding competition analysis) GraphPad Prism5 as a measure of receptor affinity.
Membranes were prepared in the following way; the cells were rinsed with PBS and incubated with Versene for approximately 5 min before harvesting. The cells were flushed with PBS and the cell-suspension was centrifuged for 5 min at 1000 rpm. Cells were homogenized (Ultrathurrax) in a buffer containing 20 mM Na-HEPES and 10 mM EDTA (pH 7.4) and centrifuged at 20.000 rpm for 15 min. The resulting pellet was resuspended, homogenized and centrifuged (20.000 rpm, 15 min) in a buffer containing 20 mM Na-HEPES and 0.1 mM EDTA (pH 7.4, buffer 2). The resulting pellet was resuspended in buffer 2 and protein concentration was measured (BCA protein Assay, Pierce). The homogenate was kept cold during the whole procedure. The membranes were kept at −80° C. until use. Assay was performed in a 384 well Optiplate (PerkinElmer) in a total volume of 40 ul. Membranes were mixed with SPA beads.

Ratio hCT/hAmylin binding	Binder
104	B1
79.6	B2
247	B3
74.1	B4
